The results in this text go back to paper PMC7346273 (ACS Omega, 2020).

In the assay the target is Aβ42 monomer (UniProt P05067 672-713). Kind of assay: NMR titration.
Sequence of Aβ42 monomer (P05067 672-713): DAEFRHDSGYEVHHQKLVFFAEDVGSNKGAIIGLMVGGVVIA

B1: P_(active) (peptide)
peptide: GFLLHQK
As to B1, the binding result is “binds”.
